Source: PMC4601027, “Structural Analysis of the Pin1-CPEB1 interaction and its potential role in CPEB1 degradation” (Scientific Reports, 2015)
Values joined by “and” are separate entries in the source; they are usually repeats but may differ in a detail not shown here. Equal entries are not always repeated. Non-standard residues stand in square brackets, D forms with d. No end group written: not given here. pS = N[C@@H](COP(=O)(O)O)C(=O)O

What was measured:
full-length Pin1 [1] = target: T1, full-length Pin1 (UniProt Q13526 1-163); experiment: native MS; travelling wave ion mobility mass spectrometry (IM-MS), nano-electrospray; unbound full-length Pin1 or Pin1 with CPEB1 pS210, 30-50 μM, 20-50 mM NH4OAc pH 7.2; conditions: both partners purified
T1 construct: Pin1 (peptidyl-prolyl cis/trans isomerase), full length; WW domain, linker and PPIase (catalytic) domain; Uniprot Q13526 is printed for the WW construct; 15N-labelled for NMR; The vector has a TEV cleavage site; Monomer by IM-MS; also called Pin1 full-length; full-length Pin1 protein; source: recombinant; clone from Addgene (Dustin Maly's Lab) in pMCSG7

full-length Pin1 [2] = target: T1, full-length Pin1; experiment: ITC; nano ITC, 12 °C or 25 °C; 20 mM Tris-HCl pH 7.0, 130 mM NaCl; 10- to 15-fold concentrated peptide injected (16 x 3 μL) into 190 μL of protein at 150-200 μM; single-site fit, except Pin1 full-length with pS210; conditions: both partners purified

T1 sequence (Q13526 whole entry, the tested form may be a part): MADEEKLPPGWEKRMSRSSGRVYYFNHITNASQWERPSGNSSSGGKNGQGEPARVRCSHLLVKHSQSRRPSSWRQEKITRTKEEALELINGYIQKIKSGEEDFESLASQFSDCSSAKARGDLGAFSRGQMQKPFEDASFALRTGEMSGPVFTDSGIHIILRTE

stoichiometry N (full-length Pin1 [1]): 1 ligands per Pin1 and 2 ligands per Pin1 | stoichiometry N (full-length Pin1 [2]): 0.85
Binder: RI[pS]PPLPF-NH2 [CPEB1 pS210 peptide]
